Consider four molecules from article PMC9482650, “Quantitative fragmentomics allow affinity mapping of interactomes” (Nature Communications, 2022).

Some targets named below: DLG2_2, Q15700; TJP1_2, Q07157; HTRA1, Q92743; NOS1, P29475; MAGI2_5, Q86UL8; DLG1_2, Q12959; DLG2_3, Q15700; MAST1, Q9Y2H9; PICK1, Q9NRD5; PTPN3, P26045; IL16_3, Q14005.
Common to all, as to test: holdup assay
Common to all, as to parameters: key: below the threshold = too weak to quantify, mostly under pKd 3.1 to 4
Common to all, as to settings: plain residues with an end cap or a label only (N-terminal biotin on a linker: ado-ado)

The target of the next test is T1, APBA2_2, Q99767.
T1 sequence (Q99767 654-744, limits assumed, looked up): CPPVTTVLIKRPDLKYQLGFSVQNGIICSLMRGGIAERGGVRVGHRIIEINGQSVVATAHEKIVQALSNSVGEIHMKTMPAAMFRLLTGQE

A further test has as its target T2, MPDZ_5, O75970.
T2 sequence (O75970 695-796, limits assumed, looked up): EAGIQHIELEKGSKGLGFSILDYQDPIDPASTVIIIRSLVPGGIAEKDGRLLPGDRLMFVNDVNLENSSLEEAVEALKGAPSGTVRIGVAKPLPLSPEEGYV

The next test has as its target T3, MPDZ_12, O75970.
T3 sequence (O75970 1857-1958, limits assumed, looked up): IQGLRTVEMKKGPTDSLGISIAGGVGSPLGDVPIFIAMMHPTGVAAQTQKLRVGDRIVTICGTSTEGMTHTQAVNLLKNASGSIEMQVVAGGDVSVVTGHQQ

Another test concerns the target T4, PDZRN3_1, Q9UPQ7.
T4 sequence (Q9UPQ7 244-349, limits assumed, looked up): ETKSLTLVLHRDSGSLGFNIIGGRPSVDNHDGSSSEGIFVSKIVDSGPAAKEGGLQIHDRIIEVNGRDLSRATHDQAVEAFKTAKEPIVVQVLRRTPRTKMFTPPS

Another test deals with T5, LIN7A, O14910.
T5 sequence (O14910 103-200, limits assumed, looked up): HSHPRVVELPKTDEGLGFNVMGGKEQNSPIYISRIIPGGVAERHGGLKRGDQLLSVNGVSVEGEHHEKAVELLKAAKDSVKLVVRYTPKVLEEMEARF

The target in a further test is T6, DFNB31_2, Q9P202.
T6 sequence (Q9P202 274-371, limits assumed, looked up): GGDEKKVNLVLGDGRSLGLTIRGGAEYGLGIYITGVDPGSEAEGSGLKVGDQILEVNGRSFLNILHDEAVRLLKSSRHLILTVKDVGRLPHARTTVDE

Another test concerns the target T7, NHERF3_4, Q5T2W1.
T7 sequence (Q5T2W1 373-468, limits assumed, looked up): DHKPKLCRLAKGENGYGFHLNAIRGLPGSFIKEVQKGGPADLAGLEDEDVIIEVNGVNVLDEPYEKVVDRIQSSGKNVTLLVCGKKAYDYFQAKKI

Another test has as its target T8, MPDZ_10, O75970.
T8 sequence (O75970 1624-1722, limits assumed, looked up): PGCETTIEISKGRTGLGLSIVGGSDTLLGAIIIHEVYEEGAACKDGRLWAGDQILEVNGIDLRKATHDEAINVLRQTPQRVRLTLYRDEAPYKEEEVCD

Another test has as its target T9, TX1BP3, O14907.
T9 sequence (O14907 10-122, limits assumed, looked up): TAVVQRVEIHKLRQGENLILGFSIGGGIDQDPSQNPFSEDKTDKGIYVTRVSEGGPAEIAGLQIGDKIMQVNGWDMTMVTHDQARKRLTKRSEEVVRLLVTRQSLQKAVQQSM

The target in a further test is T10, DLG3_1, Q92796.
T10 sequence (Q92796 125-227, limits assumed, looked up): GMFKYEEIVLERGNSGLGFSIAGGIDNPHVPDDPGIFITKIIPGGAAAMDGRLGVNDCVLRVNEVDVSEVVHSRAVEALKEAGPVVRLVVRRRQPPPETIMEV

The next test addresses T11, ARHGAP21, Q5T5U3.
T11 sequence (Q5T5U3 45-169, limits assumed, looked up): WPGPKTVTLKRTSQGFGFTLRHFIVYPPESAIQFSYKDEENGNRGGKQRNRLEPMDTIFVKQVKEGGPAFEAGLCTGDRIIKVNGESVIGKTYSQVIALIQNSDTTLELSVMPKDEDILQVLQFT

In the next test the target is T12, LRRC7, Q96NW7.
T12 sequence (Q96NW7 1440-1537, limits assumed, looked up): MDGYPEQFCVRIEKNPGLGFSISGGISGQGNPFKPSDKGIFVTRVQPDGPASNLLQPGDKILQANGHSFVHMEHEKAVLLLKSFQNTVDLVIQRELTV

Another test concerns the target T13, NHERF3_1, Q5T2W1.
T13 sequence (Q5T2W1 4-100, limits assumed, looked up): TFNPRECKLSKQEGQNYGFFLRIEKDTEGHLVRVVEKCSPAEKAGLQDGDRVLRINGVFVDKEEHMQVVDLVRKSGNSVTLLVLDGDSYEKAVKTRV

NOS1, P29475, sequence (P29475 9-101): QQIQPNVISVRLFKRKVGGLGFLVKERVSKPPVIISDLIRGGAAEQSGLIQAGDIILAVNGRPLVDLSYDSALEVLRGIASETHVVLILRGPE
IL16_3, Q14005, sequence (Q14005 1107-1207): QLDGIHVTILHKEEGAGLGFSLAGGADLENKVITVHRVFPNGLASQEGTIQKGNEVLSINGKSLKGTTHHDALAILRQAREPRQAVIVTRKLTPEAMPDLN
PTPN3, P26045, sequence (P26045 505-587): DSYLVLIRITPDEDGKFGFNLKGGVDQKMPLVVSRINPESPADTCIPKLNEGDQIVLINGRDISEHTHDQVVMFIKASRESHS
HTRA1, Q92743, sequence (Q92743 360-477): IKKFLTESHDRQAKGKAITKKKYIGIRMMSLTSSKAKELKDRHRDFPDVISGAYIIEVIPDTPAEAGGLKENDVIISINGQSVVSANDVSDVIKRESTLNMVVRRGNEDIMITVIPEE
TJP1_2, Q07157, sequence (Q07157 181-274): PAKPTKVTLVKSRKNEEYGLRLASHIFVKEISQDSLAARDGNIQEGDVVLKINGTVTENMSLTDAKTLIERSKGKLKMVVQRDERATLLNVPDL
DLG1_2, Q12959, sequence (Q12959 314-412): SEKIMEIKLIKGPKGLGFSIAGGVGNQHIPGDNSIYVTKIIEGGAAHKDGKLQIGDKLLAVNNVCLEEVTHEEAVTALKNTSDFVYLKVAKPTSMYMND
MAST1, Q9Y2H9, sequence (Q9Y2H9 962-1065): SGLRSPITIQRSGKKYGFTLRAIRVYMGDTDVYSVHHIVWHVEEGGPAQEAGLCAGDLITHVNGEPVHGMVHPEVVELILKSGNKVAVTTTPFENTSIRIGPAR
MAGI2_5, Q86UL8, sequence (Q86UL8 915-1017): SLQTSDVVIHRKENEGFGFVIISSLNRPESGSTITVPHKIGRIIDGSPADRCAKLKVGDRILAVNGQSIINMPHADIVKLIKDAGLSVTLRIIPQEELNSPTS
PICK1, Q9NRD5, sequence (Q9NRD5 17-115): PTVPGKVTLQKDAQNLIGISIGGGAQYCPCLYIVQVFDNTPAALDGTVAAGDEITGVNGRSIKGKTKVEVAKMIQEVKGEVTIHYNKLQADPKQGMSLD

Consider CLREWCDAFL [BANF1, O75531], for which the pKd entry in the test with DLG2_2, Q15700 is “below the threshold”; with APBA2_2, Q99767, “below the threshold”; with MPDZ_5, O75970, “below the threshold”; in the test with MPDZ_12, O75970, 3.67; in the test with TJP1_2, Q07157 it was “below the threshold”; in the test with HTRA1, Q92743, 5.01. Further, the pKd result is “below the threshold” in the test with PDZRN3_1, Q9UPQ7; “below the threshold” with NOS1, P29475; “below the threshold” with MAGI2_5, Q86UL8; “below the threshold” with DLG1_2, Q12959; “below the threshold” with LIN7A, O14910; “below the threshold” with DFNB31_2, Q9P202. Further, the pKd was 3.62 with NHERF3_4, Q5T2W1; “below the threshold” with MPDZ_10, O75970; 3.61 with DLG2_3, Q15700; 4.62 in the test with TX1BP3, O14907; 4.96 with MAST1, Q9Y2H9; “below the threshold” with DLG3_1, Q92796. Besides, the pKd is 4.41 with ARHGAP21, Q5T5U3; “below the threshold” in the test with PICK1, Q9NRD5; 4.47 in the test with PTPN3, P26045; 3.84 with LRRC7, Q96NW7; “below the threshold” with IL16_3, Q14005; 4.78 with NHERF3_1, Q5T2W1.
GSGAVEMESV [AQP6, Q13520]: the pKd result with DLG2_2, Q15700 is on record as “below the threshold”; with APBA2_2, Q99767, “below the threshold”; with MPDZ_5, O75970, “below the threshold”; with MPDZ_12, O75970 it was “below the threshold”; with TJP1_2, Q07157, “below the threshold”; with HTRA1, Q92743, “below the threshold”. Moreover, the negative logarithm of the Kd (pKd) result with PDZRN3_1, Q9UPQ7 is listed as “below the threshold”; in the test with NOS1, P29475, “below the threshold”; in the test with MAGI2_5, Q86UL8, “below the threshold”; with DLG1_2, Q12959, “below the threshold”; in the test with LIN7A, O14910, “below the threshold”; in the test with DFNB31_2, Q9P202, “below the threshold”. Also, the pKd result in the test with NHERF3_4, Q5T2W1 was “below the threshold”; with MPDZ_10, O75970, “below the threshold”; with DLG2_3, Q15700, “below the threshold”; in the test with TX1BP3, O14907, “below the threshold”; with MAST1, Q9Y2H9 it was 3.65; with DLG3_1, Q92796, “below the threshold”. Besides, the pKd was 3.91 in the test with ARHGAP21, Q5T5U3; “below the threshold” with PICK1, Q9NRD5; “below the threshold” in the test with PTPN3, P26045; “below the threshold” in the test with LRRC7, Q96NW7; “below the threshold” in the test with IL16_3, Q14005; “below the threshold” in the test with NHERF3_1, Q5T2W1.
Turning to PPYRHRNTVV [ERBB4, Q15303], the negative-log Kd (pKd) is 4.95 with DLG2_2, Q15700; “below the threshold” with APBA2_2, Q99767; “below the threshold” in the test with MPDZ_5, O75970; “below the threshold” with MPDZ_12, O75970; “below the threshold” with TJP1_2, Q07157; 4.13 in the test with HTRA1, Q92743. Also, the pKd in the test with PDZRN3_1, Q9UPQ7 was 3.54; with NOS1, P29475, 3.64; with MAGI2_5, Q86UL8, “below the threshold”; with DLG1_2, Q12959, 5.25; with LIN7A, O14910, “below the threshold”; with DFNB31_2, Q9P202 it was “below the threshold”. Besides, the pKd entry is “below the threshold” in the test with NHERF3_4, Q5T2W1; 3.95 with MPDZ_10, O75970; 4.35 with DLG2_3, Q15700; 4.13 with TX1BP3, O14907; “below the threshold” with MAST1, Q9Y2H9; 4.21 with DLG3_1, Q92796. Also, the pKd is 4.08 with ARHGAP21, Q5T5U3; “below the threshold” in the test with PICK1, Q9NRD5; 3.89 in the test with PTPN3, P26045; “below the threshold” in the test with LRRC7, Q96NW7; “below the threshold” in the test with IL16_3, Q14005; “below the threshold” in the test with NHERF3_1, Q5T2W1.
Turning to RRISSLESEV [GRIN2C, Q14957], the negative-log Kd (pKd) is 5.11 with DLG2_2, Q15700; “below the threshold” in the test with APBA2_2, Q99767; “below the threshold” in the test with MPDZ_5, O75970; “below the threshold” with MPDZ_12, O75970; “below the threshold” in the test with TJP1_2, Q07157; 3.82 with HTRA1, Q92743. Also, the pKd with PDZRN3_1, Q9UPQ7 is 4.24; with NOS1, P29475, 3.96; with MAGI2_5, Q86UL8, 4.96; with DLG1_2, Q12959, 5.51; with LIN7A, O14910, “below the threshold”; with DFNB31_2, Q9P202, “below the threshold”. Also, the pKd is 3.66 with NHERF3_4, Q5T2W1; “below the threshold” with MPDZ_10, O75970; 4.44 in the test with DLG2_3, Q15700; 5 with TX1BP3, O14907; 4.54 with MAST1, Q9Y2H9; 4.37 with DLG3_1, Q92796. Besides, the negative logarithm of the Kd (pKd) entry with ARHGAP21, Q5T5U3 is “below the threshold”; with PICK1, Q9NRD5, “below the threshold”; in the test with PTPN3, P26045, 4.98; with LRRC7, Q96NW7, 4.05; with IL16_3, Q14005, “below the threshold”; with NHERF3_1, Q5T2W1, 3.82.
